In general, stoichiometry N refers to the number of molecules, sites or subunits per partner or assembly.

The target in experiment [1] is HERC5 HECT domain (UniProt Q9UII4). Nature of the experiment: SEC.
Experiment [2] has the same target. Kind of experiment: SAXS.

Sequence of HERC5 HECT domain (Q9UII4 702-1024): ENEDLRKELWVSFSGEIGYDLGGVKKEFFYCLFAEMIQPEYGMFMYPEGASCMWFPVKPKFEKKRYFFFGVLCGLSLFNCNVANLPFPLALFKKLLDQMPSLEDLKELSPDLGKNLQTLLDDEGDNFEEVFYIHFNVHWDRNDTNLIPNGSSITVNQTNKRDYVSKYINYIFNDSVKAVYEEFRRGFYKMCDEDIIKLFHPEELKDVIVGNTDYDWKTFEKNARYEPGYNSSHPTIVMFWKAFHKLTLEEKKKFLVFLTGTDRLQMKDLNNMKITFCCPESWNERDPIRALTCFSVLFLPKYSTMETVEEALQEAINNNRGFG

In the case of “HERC5 HECT domain (from UniProt Q9UII4 702-1024) (domain or fragment)”, the stoichiometry N in the experiment with HERC5 HECT domain [1] and in the experiment with HERC5 HECT domain [2] was 3 in each case.

Values taken from article doi:10.1101/2025.03.22.644726.
